Sequences and labels used below:
B1: NTGA 56: Phl p wild type sequence, Table 2 (protein)
chain: MARLLFPLPIAAAAVSASSIHLAASRFRLPVVSAARRGTLFGGRVAVRAPARLATRGVSAGAEAGGSAARAGTVIGPEEALEWVKNDRRRLLHVVYRVGDLDKTIKFYTECLGMKLLRKRDIPEERYTNAFLGYGPEDSHFVVELTYNYGVESYDIGSGFGHFGIAVEDVEKTVELIKAKGGTVTREPGPVKGGKSVIAFIEDPDGYKFELIERGPTPEPLCQVMLRVGDLDRAIKFYEKAFGMELLRRKDNPQYKYTIAMMGYGPEDKNAVLELTYNYGVKEYDKGNAYAQIAIGTDDVYKTAEVVRQNGGQITREPGPLPGISTKITACTDPDGWKSVFVDNLDFLKELEE
modifications: Phleum Pratense
B2: NTGA 62: Phl p wild type sequence, Table 2 (protein)
chain: MRRLSLILLAAAALLAAAVSAEPGPAPKLSPDFYSQTCPRAERIIAEVVQSKQMANPTTAAGVLRVFFHDCFVSGCDASVLIAPTHYAKSEKDADINHSLPGDAFDAVVRSKLALELECPGVVSCADILAIASRVLVTMTGGPRYPVPLGRKDSLSSNPAAPDVELPHSNFTVGRIIELFTAKGFTVQEMVALSGAHTLGFSHCQEFASRIYNYRDKGGKPAPFDPSMNPTYAKGLQAACQDYQKDPTIAAFNDIMTPGKFDNMYYVNIERGLGLLSTDEDMWSDMRTKPFVQRYAANNTDFFEDFAKAIEKLSMYGVKTGADGEIRRRCDAFNSGPNIQ
modifications: Phleum Pratense
B3: NTGA 51: Phl p wild type sequence, Table 2 (protein)
chain: MSPAEPTREESVYMAKLAEQAERYEEMVEFMERVAKATGGAGPGEELSVEERNLLSVAYKNVIGARRASWRIISSIEQKEEGRGNDAHATTIRSYRSKIEAELAKICDGILALLDSHLVPSAGAAESKVFYLKMKGDYHRYLAEFKSGAERKEAAESTMNSYKAAQDIALADLAPTHPIRLGLALNFSVFYYEILNSPDRACNLAKQAFDEAISELDSLGEESYKDSTLIMQLLRDNLTLWTSDTNEDGGDEIKEAPAPKESGD
modifications: Phleum Pratense
B4: NTGA 34: Phl p wild type sequence, Table 2 (protein)
chain: MSFSWICACVRAAAVAWEAGKPLSIEEVEVAPPQAMEVRVKILFTALCHTDVYFWEAKGQTPVFPRIFGHEAGGIVESVGEGVTDVAPGDHVLPVFTGECKECRHCKSAESNMCDLLRINTDRGVMISDGKSRFSIDGKPIFHFVGTSTFSEYTVMHVGCVAKINPEAPLDKVCVLSCGISTGLGASINVAKPPKGSTVAIFGLGAVGLAAAEGARIAGASRIIGIDLNANRFEEARKFGCTEFVNPKDHTKPVQEVLAEMTDGGVDRSVECTGNINAMIQAFECVHDGWGVAVLVGVPHKDAEFKTHPMNFLNERTLKGTFFGNFKPRTDLPNVVEMYMKKELEVEKFITHSVTFSEINKAFDLMAKGEGIRCIIRMEH
modifications: Phleum Pratense
B5: NTGA 30: Phl p wild type sequence, Table 2 (protein)
chain: MAGGGVEDVYGEDRATEEQFVTPWSFSVASGHSLLRDPRHNKGLAFSEAERDAHYLRGLLPPAIVSQEHQEKKIMHNLRQYTVPLQRYIAMMDLQERNERLFYKLLIDNVEELLPVVYTPVVGEACQKYGSIYRRPQGLYISLKDKGKVLEVLKNWPERSIQVIVVTDGERILGLGDLGCQGMGIPVGKLSLYTALGGVRPSACLPITIDVGTNNQTLLDDEYYIGLKQRRATGEEYHELLQEFMNAVKQNYGEKVLVQFEDFANHNAFDLLAKYSKSHLVFNDDIQGTASVVLAGLLAALKVIGGGLADQTYLFLGAGEAGTGIAELIALEMSKHTDLPLDDCRKKIWLVDSKGLLVESRKESLQHFKKPFAHEHEPLTTLLEAVQSLKPTVLIGTSGVGKTFTQEVVEAMASFNEKPVIFSLSNPTSHSECTAEEAYTWTKGTAVFASGSPFDPVEYEGKTYVPGQSNNAYVFPGFGLGVVISGAIRVHDDMLLAASEALAEQVSQENFDKGLIFPPFTNIRKISANIAAKVAAKAYDLGLASRLPRPDDLVKYAESCMYTPLYRSYR
modifications: Phleum Pratense
B6: NTGA 76: Phl p wild type sequence, Table 2 (protein)
chain: MASHIVGYPRMGPKRELKFALESFWDGKSSAEDLEKVATDLRASIWKQMSEAGIKYIPSNTFSYYDQVLDTTAMLGAVPDRYSWTGGEIGHSTYFSMARGNATVPAMEMTKWFDTNYHFIVPELGPETKFSYASHKAVSEYKEAKALGVDTVPVLVGPVSYLLLSKAAKGVEKSFSLLSLLGGILPIYKEVVAELKAAGASWIQFDEPTLVKDLAAHELAAFSSAYAELESSLSGLNVLIETYFADVPAESYKTLTSLSGVTAYGFDLVRGTKTLDLLKSVGIPSGKYLFAGVVDGRNIWADDLAASLSTLESLEAIVGKDKLVVSTSCSLMHTAVDLVNETKLDSEIKSWLAFAAQKVVEVNALGKALVGLKDEAYFAANAAAQASRRSSPRVNNEEVQKAAAALKGSDHRRATTVSARLDAQQKKLNLPVLPTTTIGSFPQTMDLRRVRREYKAKKISEEAYVSAIKEEISKVVKIQEELDIDVLVHGEPERNDMVEYFGEQLSGFAFTANGWVQSYGSRCVKPPIIYGDVSRPNPMTVFWSKMAQSMTPRPMKGMLTGPV
modifications: Phleum Pratense
B7: NTGA 32: Phl p wild type sequence, Table 2 (protein)
chain: MAPIKIGINGFGRIGRLVARVALQCPDVELVAVNDPFITTDYMTYMFKYDTVHGQWKHHDVKVKDAKTLLFGEKEVAVFGCRNPEEIPWGAAGADYVVESTGVFTDKDKAAAHIKGGAKKVIISAPSKDAPMFVCGVNEKEYTSDITIVSNASCTTNCLAPLAKVINDRFGIVEGLMTTVHAMTATQKTVDGPSSKDWRGGRAASFNIIPSSTGAAKAVGKVLPVLNGKLTGMAFRVPTVDVSVVDLTVRLEKAATYEQIKAAIKEESEGNLKGILGYVDEDLVSTDFQGDSRSSIFDAKAGIALNDNFVKLVSWYDNEWGYSTRVVDLIRHIHATK
modifications: Phleum Pratense
B8: NTGA 65: Phl p wild type sequence, Table 2 (protein)
chain: AMAVDLTPRQPTKAYGGDGGAYYEWSPAELPMLGVASIGAAKLSLAAGGMSLPSYSDSAKVAYVLQGKGTCGIVLPEATKEKVVAIKEGDALALPFGVVTWWHNTPESSTELVVLFLGDTSKGHTPGKFTNFQLTGATGIFTGFSTEFVARAWDLDQDAAASLVSTQPGTGIVKLAPGHKMPVARAEDRKGMALNCLEAKLDVDIPNGGRVVVLNTVNLPLVKEVGLGADLVRIDAHSMCSPGFSCDSAYQVTYIVRGSGRVQVVGPDGKRVLETRIEGGSLFIVPRFHVVSKIADASGMEWFSIITTPNPIFSHLAGKTSVWKAISPEVLEAAFNTTPEMEKLFRSKRLDSEIFFAPS
modifications: Phleum Pratense

The first test concerns cultured PBMCs of the allergic donors. The experiment in a line: ELISPOT of IL-5 or IFNg production by cultured PBMCs of TG allergic donors in response to peptide. Type of test: cell-based, human. To be noted: NTGA number given = criterion met; TG allergic donors n=20. The source says: Table 1 indicates for each of the 397 PG+ peptides in which non-grass pollen species a matching peptide with either less than 3, less than 2 or zero mismatches are found. The number of TG grass allergic donors (n=20) with an in vitro T cell response to the TG peptide sequence is also shown.
A set of 93 proteins from Timothy grass (TG) pollen and the assembly of 822 peptides (15 mers) predicted to promiscuously bind HLA class II molecules shown in Table 9 and the immune reactivity in allergic donors have been reported in PCT application WO 2013/119863. […] Immune reactivity was determined by the production of IL-5 or IFNg from cultured PBMCs of the allergic donors in response to stimulation with a peptide and IL-5 and IFNg were measured by ELISPOT as described in Oseroff C et al, 2010.
In short, T cell immune reactivity was determined using PBMCs isolated from study participants and stored in liquid nitrogen until further use. For experimental testing, PBMCs were thawed and expanded in vitro with TG pollen extract (50 μg/mL) or the peptide pool ([…]). The TG extract and peptide pools had each been previously titrated to determine optimal stimulation concentrations.
Cytokine production by cultured PBMCs in response to antigen stimulation was measured by ELISPOT. Cells (1×10^5 cells/well) were plated and incubated with peptide (10 μg/mL), the peptide pool (5 μg/mL), or the TG extract (50 μg/mL). Phytohaemagglutinin (10 μg/mL) and medium alone were used as positive and negative controls, respectively. Samples were considered to produce a cytokine if 100 spot-forming cells (SFCs)/10^6 PBMCs were detected, with P .05 and a stimulation index of 2 or more. Criteria for individual peptides were the same except that a minimum of 20 SFCs were required for a sample to be counted as positive.
Table 3 lists the 397 PG+ peptides and indicates for each non-grass pollen species whether a matching peptide with either less than 3, less than 2 or zero mismatches could be detected. The immune reactivity of the TG peptide was assessed as the number of TG grass allergic donors (n=20) having in vitro T cell response against the TG peptide.
Consider B1, for which the “NTGA's containing at least one T cell epitope, Th+ (Col 2)” value (“NTGA's containing” below) was 56.

As to B2, the “NTGA's containing” value was found to be 62.

Take B3: the “NTGA's containing” value was 51.

As for B4, the “NTGA's containing” value is recorded as 34.

Consider B5, for which the “NTGA's containing” value is given as 30.

In the case of B6, the “NTGA's containing” value was found to be 76.

With B7, the “NTGA's containing” value amounted to 32.

For the molecule B8, the “NTGA's containing” value is listed as 65.

Staying with this test, now noted: Table 6; PG+ peptides recognized by T cells of grass allergic donors (n=20).
For B1, the “No of PG+ & th+ peptides per NTGA” value amounted to 1.

In the case of B2, the “No of PG+ & th+ peptides per NTGA” value is recorded as 1.

As to B3, the “No of PG+ & th+ peptides per NTGA” value was 2.

Consider B4, for which the “No of PG+ & th+ peptides per NTGA” value came out at 3.

Regarding B5, the “No of PG+ & th+ peptides per NTGA” value came out at 1.

B6: the “No of PG+ & th+ peptides per NTGA” value is on record as 5.

In the case of B7, the “No of PG+ & th+ peptides per NTGA” value was 4.

As for B8, the “No of PG+ & th+ peptides per NTGA” value was found to be 2.

The test is the same for the next values; noted with them: Table 6; PP peptides recognized by T cells of grass allergic donors (n=20).
On to B1, for which the “No of PP & Th+ peptides per NTGA” value stood at 1.

For the molecule B2, the “No of PP & Th+ peptides per NTGA” value was 0.

For B3, the “No of PP & Th+ peptides per NTGA” value is 1.

As to B4, the “No of PP & Th+ peptides per NTGA” value is listed as 1.

Regarding B5, the “No of PP & Th+ peptides per NTGA” value was found to be 1.

B6: the “No of PP & Th+ peptides per NTGA” value is 0.

With B7, the “No of PP & Th+ peptides per NTGA” value came to 4.

Regarding B8, the “No of PP & Th+ peptides per NTGA” value is recorded as 0.

Still in this test, the particulars now being: Table 7; peptides per NTGA recognized by T cells of grass allergic donors (n=20).
In the case of B1, the “# Th+” value came to 0.

In the case of B2, the “# Th+” value came out at 2.

Take B3: the “# Th+” value is listed as 0.

For B4, the “# Th+” value was found to be 0.

Consider B5, for which the “# Th+” value came to 0.

As for B6, the “# Th+” value stood at 0.

B7: the “# Th+” value stood at 0.

In the case of B8, the “# Th+” value was 0.

(Values after US20160287696A1, “PAN POLLEN IMMUNOGENS AND METHODS AND USES FOR IMMUNE RESPONSE MODULATION” (LA JOLLA INSTITUTE FOR ALLERGY AND IMMUNOLOGY, priority 2013, published 2016).)
